Values quoted from earlier work, collected in publication PMC5535146.
Where two headings read alike, the source gives them in different places.

What was measured:
[1] = biological target: calmodulin (UniProt P0DP23)
[2] = biological target: calmodulin (UniProt P0DP23); remark: listed apart in the source

Row | Substance | Kd [1] [nM] | Kd [2] [nM]
1 | CyaA adenylate cyclase AC (from UniProt P0DKX7) | 0.2 | 
2 | edema factor (from UniProt P40136) |  | 20
